The values below come from article PMC7581431, “Feedback control of Wnt signaling based on ultrastable histidine cluster co-aggregation between Naked/NKD and Axin” (eLife, 2020).

One series addresses T1, Lip-DVL2-PDZ (human, UniProt O14641 285-373).
T1 construct: PDZ domain of human DVL2, residues 285-373; also called DVL2 PDZ domain; wt DVL2 PDZ domain; source: E. coli BL21DE3 pRare2, purified (NiNTA, SEC)
T1 sequence (looked up): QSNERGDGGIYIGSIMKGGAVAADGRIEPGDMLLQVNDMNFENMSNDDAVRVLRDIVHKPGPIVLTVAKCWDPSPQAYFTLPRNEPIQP
Kind of series: ITC; MicroCal iTC200, 15 mM Tris-HCl, 150 mM NaCl, pH 7.4; Lip-DVL2-PDZ or Lip-DVL2-PDZ-V334E (696 μM) injected into 17.2 μM RFP-NKD-EF. Conditions: both partners purified. In general terms: Isothermal titration calorimetry measures the heat released or taken up as one component is titrated into another.

Series [1] concerns the molecule itself. Nature of the series: SEC-MALS; purified proteins and preformed complexes, Superdex-200 10/300, 2 mg/ml, 15 mM TrisHCl, 150 mM NaCl, pH 7.4. Background: Size exclusion chromatography separates by hydrodynamic size, large species first.

B1: RFP-NKD1-EF (domain or fragment, human, UniProt Q969G9 110-190, looked up)
chain: EPCPGSKKQLKFEELQCDVSMEEDSRQEWTFTLYDFDNNGKVTREDITSLLHTIYEVVDSSVNHSPTSSKMLRVKLTVAPD
notes: EF-hand of human NKD1, residues 110-190; Dimer by SEC-MALS (expected RFP-NKD1-EF dimer, 71.8 kDa); also called RFP-NKD-EF; NKD1 EF-hand; source: E. coli BL21DE3 pRare2, purified (NiNTA, SEC)
What is called Kd is the constant that tells how readily two partners part at equilibrium. Read a low Kd as higher affinity. As a reminder, the stoichiometry N is a count of units in the complex or per binding partner. For B1, the Kd in the series with Lip-DVL2-PDZ is 3.2 ± 0.2 µM. For the same molecule, the “stoichiometry N” value in series [1] came to 2.
